Patent US20200206198A1, “CFTR CHANNEL ACTIVATOR FOR USE IN THE TREATMENT AND/OR PREVENTION OF GLUTEN SENSITIVITY CONDITIONS” (priority 2017, published 2020)

Biological target: T1, PM-associated CFTR (Homo sapiens, UniProt P13569)
T1 construct: Immunoprecipitations of endogenous proteins were performed on 500 μg of lysates from Caco-2 cells; host or cells: Caco-2, T84
Experiment: CFTR plasma membrane disposal in Caco-2 cells (membrane fractions)
Type: cell-based
Protocol: Human colon adenocarcinoma-derived Caco-2 and T84 cells were obtained from the ATCC. Cells were maintained in T25 flask in Modified Eagle Medium (MEM) for Caco-2, or Ham's F12+DMEM (1:1) for T84, supplemented with 10% fetal bovine serum (FBS), 2 mM Glutamine+1% Non Essential Amino Acids (NEAA) and the antibiotics penicillin\streptomycin (100 units/ml) (all reagents from Lonza) (Luciani, A., et al. 2010. Cells were grown in Transwells (Corning, 3470 or 3460) under the normal condition (Luciani, A., et al. 2012). Briefly, 8×10^4 or 5×10^5 cells were seeded in 6.5-mm diameter or 12-mm diameter, respectively, and grown until the RT reached 800 to 1,200 Ω·cm2. Transwells with a pore size of 0.4 μm were used. Medium in both the apical and basolateral chambers was changed every other day. Cells were treated with 20 μg/ml of either α-gliadin peptide P31-43 or […] or scrambled PGAV or modified P31-43 either biotin-tagged or not, for different time point (from 1 h short challenge up to 24 h). Cells were also treated with 50 or 100 μg/ml of P57-68 or PGAV peptides for 3 h. Caco-2 or T84 cells were also treated with: CFTR potentiators VX-770 (10 μM) or VX-532 (20 μM) (Selleck chemicals) or Genistein (10 μM) (Sigma-Aldrich) or in presence or absence of CFTR inhibitor172 (CFTRinh172, 20 μM) or 3-methyl-adenine (3-MA, 20 μM) (Calbiochem), Z-DON (20 nM, Zedira) or BAPTA-AM (10 μM, Calbiochem).
The whole lysate or membrane fraction proteins of cell lines and mice intestine homogenates were obtained from treated and untreated cells or mice as described. The equal amount of protein were resolved by SDS-PAGE gel and blotted with antibodies against: SQSTM1, (Sigma Aldrich, 108k4767) 1:1000, PPARγ (Santa Cruz Biotechnology, sc7273) 1:500, BECN1 (Abcam, ab58878) 1:1000, CFTR clone M3A7 (Abcam, ab4067) 1:500, phospho-ERK1/2 (php42/44, Cell Signaling Technology, #91101) 1:1000, UVRAG (Santa Cruz Biotechnology sc8215) 1:1000, NHERF-1 (BD, 611161) 1:1000, EZRIN (BD, 610603) 1:1000, hVps34 (SigmaV9764) 1:300, biotin (Abcam, ab1227) 1:2000, PKAr2a (BD, 610625) 1:500, Ubiquitin (Cell Signaling clone P4D1, #3936) 1:1000, CHIP (Calbiochem PC711) 1:500, Caspase-1 p10 (M-20) (Santa Cruz Biotechnology, sc-514) 1:200, NLRP3 (Abcam, ab4207), 1:500, IDO1 (monoclonal; cv152) 1:1000^[80], used as primary antibodies. Normalization was performed by probing the membrane with anti-β-actin (Cell Signaling, #4970) 1:1000, anti-Gapdh (Sigma-Aldrich, G8795) 1:1000 and anti-flottilin (Abcam ab15148) 1:1000 antibodies. Immunoprecipitations of endogenous proteins were performed on 500 μg of lysates from Caco-2 cells. The proteins were incubated for 12-18 h at 4° C. with 10 ug\ml of specific antibody followed by the addition of Protein A/G-agarose beads for 4 h at 4° C. The beads were then washed three times with lysis buffer and Laemmli's sample buffer was added to the samples. The membranes were then blotted with: CFTR clone CF3 (Abcam, ab2784) 1:1000, TG2 (clone CUB7402; NeoMarkers) 1:1000, CHIP (Calbiochem PC711) 1:500, Ubiquitin (Cell Signaling clone P4D1 3936), isopeptide (Abcam 422) 1:1000, PKAR2 (BD 610625) 1:500.
Protein from membrane fractionation were obtained as described. Cells were homogenized with a PotterElvehjem pestle and centrifuged at 2300×g for 15 min at 4° C. […]

T1 sequence (P13569 whole entry): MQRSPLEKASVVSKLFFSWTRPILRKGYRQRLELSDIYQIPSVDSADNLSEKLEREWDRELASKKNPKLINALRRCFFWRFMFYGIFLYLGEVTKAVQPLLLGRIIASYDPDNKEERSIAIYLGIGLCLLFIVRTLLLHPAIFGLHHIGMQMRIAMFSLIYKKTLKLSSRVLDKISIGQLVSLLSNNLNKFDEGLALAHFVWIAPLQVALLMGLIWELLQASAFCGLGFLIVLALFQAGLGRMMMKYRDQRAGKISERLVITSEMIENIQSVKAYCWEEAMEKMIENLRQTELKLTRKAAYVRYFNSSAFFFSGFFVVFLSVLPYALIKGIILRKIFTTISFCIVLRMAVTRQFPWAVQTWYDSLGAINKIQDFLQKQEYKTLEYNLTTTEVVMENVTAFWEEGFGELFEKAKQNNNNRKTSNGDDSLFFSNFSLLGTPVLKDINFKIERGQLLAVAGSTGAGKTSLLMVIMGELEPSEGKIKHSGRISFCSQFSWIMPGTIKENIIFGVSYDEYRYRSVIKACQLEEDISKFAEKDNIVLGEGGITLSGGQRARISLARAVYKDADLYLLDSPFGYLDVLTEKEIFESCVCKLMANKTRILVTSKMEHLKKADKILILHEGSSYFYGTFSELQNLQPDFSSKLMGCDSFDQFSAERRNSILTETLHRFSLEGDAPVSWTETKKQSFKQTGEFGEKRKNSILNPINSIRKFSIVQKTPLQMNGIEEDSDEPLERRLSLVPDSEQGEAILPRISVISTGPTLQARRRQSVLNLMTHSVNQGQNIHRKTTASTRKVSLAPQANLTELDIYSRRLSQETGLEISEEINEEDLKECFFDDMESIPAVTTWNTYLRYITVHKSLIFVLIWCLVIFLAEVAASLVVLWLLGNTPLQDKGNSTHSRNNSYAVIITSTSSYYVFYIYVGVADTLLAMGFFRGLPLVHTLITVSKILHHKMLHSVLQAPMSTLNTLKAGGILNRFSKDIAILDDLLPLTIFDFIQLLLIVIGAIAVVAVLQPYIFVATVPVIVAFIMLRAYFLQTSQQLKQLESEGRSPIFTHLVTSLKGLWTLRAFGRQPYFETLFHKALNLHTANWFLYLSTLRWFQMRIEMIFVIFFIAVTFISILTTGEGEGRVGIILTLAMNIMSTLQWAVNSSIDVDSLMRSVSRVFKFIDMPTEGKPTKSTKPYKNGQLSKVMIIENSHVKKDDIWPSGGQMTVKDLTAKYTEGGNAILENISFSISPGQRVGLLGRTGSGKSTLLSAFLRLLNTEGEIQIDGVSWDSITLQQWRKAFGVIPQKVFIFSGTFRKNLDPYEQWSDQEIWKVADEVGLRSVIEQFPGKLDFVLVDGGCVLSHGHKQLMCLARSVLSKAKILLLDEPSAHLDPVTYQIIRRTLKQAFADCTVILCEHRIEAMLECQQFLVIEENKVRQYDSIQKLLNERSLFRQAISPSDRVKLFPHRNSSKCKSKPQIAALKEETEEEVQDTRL

Compound | CHIP-mediated CFTR ubiquitilation | abundance of plasma membrane-associated SQSTM1/p62 | overall abundance of PM-associated CFTR (after 24 h of challenge) | effect on P31-43-induced reduction of PM-associated CFTR
α-gliadin peptide LGQQQPFPPQQPY (SEQ ID 1), induces an enterocyte stress response (P31-43 sequence of alpha-gliadin) | promoted | increased the abundance | reduction of the overall abundance of PM-associated CFTR | –
CC(C)(C)c1cc(C(C)(C)C)c(NC(=O)c2c[nH]c3ccccc3c2=O)cc1O [VX-770, N-(2,4-di-tert-butyl-5-hydroxyphenyl)-4-oxo-1,4-dihydroquinoline-3-carboxamide] | – | – | – | counteracted
